# Patent US20240035010, “COMPOSITIONS COMPRISING A VARIANT POLYPEPTIDE AND USES THEREOF” (Arbor Biotechnologies, Inc., published 2024)
# T1: variant nuclease 7 substitutions D590G/E154G/E736G (P14R, D32R, I61R, E311R, D590G, E154G, E736G)
# T1 chain: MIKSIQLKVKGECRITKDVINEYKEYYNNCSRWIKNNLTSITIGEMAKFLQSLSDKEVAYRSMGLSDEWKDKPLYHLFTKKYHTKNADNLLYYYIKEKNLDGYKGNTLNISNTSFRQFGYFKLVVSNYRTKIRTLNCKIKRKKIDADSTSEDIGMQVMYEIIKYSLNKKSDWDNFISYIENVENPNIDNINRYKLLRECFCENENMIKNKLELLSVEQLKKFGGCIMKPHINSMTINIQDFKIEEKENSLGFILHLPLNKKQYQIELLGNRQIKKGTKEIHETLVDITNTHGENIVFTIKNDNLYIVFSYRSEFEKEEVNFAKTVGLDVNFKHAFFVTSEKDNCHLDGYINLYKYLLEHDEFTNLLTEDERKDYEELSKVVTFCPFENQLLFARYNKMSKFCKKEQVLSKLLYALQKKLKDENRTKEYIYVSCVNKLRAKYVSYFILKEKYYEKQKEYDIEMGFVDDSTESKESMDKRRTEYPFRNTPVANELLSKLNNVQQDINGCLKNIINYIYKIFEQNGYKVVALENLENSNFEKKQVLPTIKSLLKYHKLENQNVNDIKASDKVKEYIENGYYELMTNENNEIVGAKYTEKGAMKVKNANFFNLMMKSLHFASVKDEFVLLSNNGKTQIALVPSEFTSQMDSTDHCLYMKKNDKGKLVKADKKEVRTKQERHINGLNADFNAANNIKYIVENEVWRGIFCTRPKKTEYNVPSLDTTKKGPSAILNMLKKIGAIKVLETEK
# T2: variant nuclease K35G combination (P14R, D32R, I61R, E311R, K35G)
# T2 chain: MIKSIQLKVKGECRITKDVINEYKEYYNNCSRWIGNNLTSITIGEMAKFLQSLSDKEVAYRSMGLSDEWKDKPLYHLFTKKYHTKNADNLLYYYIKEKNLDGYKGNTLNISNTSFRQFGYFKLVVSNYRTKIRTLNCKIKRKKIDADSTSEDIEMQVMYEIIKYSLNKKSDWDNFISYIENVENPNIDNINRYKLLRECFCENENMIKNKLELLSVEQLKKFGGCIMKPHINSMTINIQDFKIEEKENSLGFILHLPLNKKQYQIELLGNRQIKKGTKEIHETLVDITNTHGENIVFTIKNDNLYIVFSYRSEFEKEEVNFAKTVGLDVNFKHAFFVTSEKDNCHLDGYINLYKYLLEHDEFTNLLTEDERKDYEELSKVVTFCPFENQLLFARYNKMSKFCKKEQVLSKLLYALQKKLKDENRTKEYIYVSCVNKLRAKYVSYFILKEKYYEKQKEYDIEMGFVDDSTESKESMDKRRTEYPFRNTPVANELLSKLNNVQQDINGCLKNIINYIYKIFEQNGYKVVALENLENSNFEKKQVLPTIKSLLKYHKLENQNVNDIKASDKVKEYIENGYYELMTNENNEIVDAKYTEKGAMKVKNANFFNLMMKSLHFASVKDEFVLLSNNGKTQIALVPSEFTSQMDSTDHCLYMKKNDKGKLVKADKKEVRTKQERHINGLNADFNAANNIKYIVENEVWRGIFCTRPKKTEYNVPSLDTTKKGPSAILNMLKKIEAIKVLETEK
# Assays:
# [1] = target: T1, variant nuclease 7 substitutions …; assay: cell_activity; PAM 5'-TTTG-3'; settings: tags: pcDNA3.1 expression
# Outline: (§1)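 HEK293T cells were lipofected with nuclease plasmid (pcDNA3.1 backbone) plus RNA guide plasmid, with guide omitted in negative controls. After ~72 h cells were lysed in QuickExtract and % indels were derived from NGS reads, averaged over two bioreplicates and two technical replicates.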
# [2] = target: T2, variant nuclease K35G combination; assay: cell_activity; PAM 5'-TTTG-3'; settings: tags: pcDNA3.1 expression
# Outline: as §1
binder,measurement,setting,value
AAVS1 crRNA ; AAVS1 target (ssRNA ; dsDNA) RNA: CUUGUUGUAUAUGUCCUUUUAUAGGUAUUAAACAACUGAGAAUGGUGCGUCCUAGG DNA 1: TGAGAATGGTGCGTCCTAGG DNA 2: CCTAGGACGCACCATTCTCA,indel activity,[1],5.91 fold of WT
same,indel activity,[2],5.66 fold of WT
